Here are results for 56 variants from the RNAGym collection of RNA variant scans (doi:10.7554/elife.90254).

The labels stand for the following.
B1: LINE1-mini (parent)
chain: GGCAGAGCUCAACACAGCGUGGCAAAGUGGCUGUGGCUAGACUGCC

The variants in the data set derive from B1. Kind of data set: self-cleavage, relative activity (ratio to wild type); higher = more cleavage; in vitro, sequencing; the parent is a self-cleaving ribozyme.
On to GGCAGAGCUCAACACGGCGUGGCAAAGUGGCUGUGCCUAGACUGCC [A16G G36C], for which the self-cleavage was found to be 0.05. Turning to GGCAGAGCUCAACACCGCGUGGCAAAGUGGCUGUGGCUAGACUUCC [A16C G44U], the self-cleavage worked out at 0.07. The figure for GGCAGAGCUCAACACGGCGUGGCAAAGUUGCUGUGGCUAGACUGCC [A16G G29U] is 0.77; for GGCAGAGCUCAACACGGCGUGGCAAAGUAGCUGUGGCUAGACUGCC [A16G G29A] it is 1.23; for GGCAGAGCUCAACACGGCGUGGCAAAGUCGCUGUGGCUAGACUGCC [A16G G29C] it is 0.4. As to GGCAGAGCUCAACACGGCGUGGCAAAAUGGCUGUGGCUAGACUGCC [A16G G27A], the self-cleavage was found to be 0.78. Consider GGCAGAGCUCAACACGGCGUGGCAAACUGGCUGUGGCUAGACUGCC [A16G G27C], for which the self-cleavage was 0.17. The result for GGCAGAGCUCAACACGGCGUGGCAAAUUGGCUGUGGCUAGACUGCC [A16G G27U] reads 0.68; that for GGCAGAGCUCAACACGGCGUGGCAAAGUGGCUGUGGAUAGACUGCC [A16G C37A], 0.08; that for GGCAGAGCUCAACACGGCGUGGCAAAGUGGCUGUGGGUAGACUGCC [A16G C37G], 0.02.

For the variant GGCAGAGCUCAACACGGCGUGGCAAAGUGGCUGUGGUUAGACUGCC [A16G C37U], the self-cleavage worked out at 0.04.

Turning to GGCAGAGCUCAACACGGCCUGGCAAAGUGGCUGUGGCUAGACUGCC [A16G G19C], the self-cleavage was 0.5.

As to GGCAGAGCUCAACACGGCUUGGCAAAGUGGCUGUGGCUAGACUGCC [A16G G19U], the self-cleavage was 0.47.

As to GGCAGAGCUCAACACGGCAUGGCAAAGUGGCUGUGGCUAGACUGCC [A16G G19A], the self-cleavage was 1.31.

As to GGCAGAGCUCAACACGGCGUGGCAAAGUGGCUGUGGCUCGACUGCC [A16G A39C], the self-cleavage was 0.12. On to GGCAGAGCUCAACACGGCGUGGCAAAGUGGCUGUGGCUUGACUGCC [A16G A39U], for which the self-cleavage came to 0.14. The figure for GGCAGAGCUCAACACGGCGUGGCAAAGUGGCUGUGGCUGGACUGCC [A16G A39G] is 0.07; for GGCAGAGCUCAACACGGCGUGGCAAAGUGACUGUGGCUAGACUGCC [A16G G30A] it is 0.67. GGCAGAGCUCAACACGGCGUGGCAAAGUGUCUGUGGCUAGACUGCC [A16G G30U]: the self-cleavage was determined as 0.31. The result for GGCAGAGCUCAACACGGCGUGGCAAAGUGCCUGUGGCUAGACUGCC [A16G G30C] reads 1.19. The figure for GGCAGAGCUCAACACCGCGUGGCAAAGUGGCUGUGGCCAGACUGCC [A16C U38C] is 0.1; for GGCAGAGCUCAACACCGCGUGGCAAAGUGGCUGUGGCGAGACUGCC [A16C U38G] it is 0.03. In the case of GGCAGAGCUCAACACCGCGUGGCAAAGUGGCUGUGGCAAGACUGCC [A16C U38A], the self-cleavage is 0.13. The figure for GGCAGAGCUCAACACGGCGUGGCAAAGUGGCUGUGGCUAUACUGCC [A16G G40U] is 0.05; for GGCAGAGCUCAACACGGCGUGGCAAAGUGGCUGUGGCUACACUGCC [A16G G40C] it is 0.07; for GGCAGAGCUCAACACGGCGUGGCAAAGUGGCUGUGGCUAAACUGCC [A16G G40A] it is 0.05. The result for GGCAGAGCUCAACACCGCGUGGCAAAGUGGCUGCGGCUAGACUGCC [A16C U34C] reads 0.07; that for GGCAGAGCUCAACACCGCGUGGCAAAGUGGCUGGGGCUAGACUGCC [A16C U34G], 0.05. The result for GGCAGAGCUCAACACCGCGUGGCAAAGUGGCUGAGGCUAGACUGCC [A16C U34A] reads 0.04. For the variant GGCAGAGCUCAACACGGCGUGGCAACGUGGCUGUGGCUAGACUGCC [A16G A26C], the self-cleavage stood at 0.84. The result for GGCAGAGCUCAACACGGCGUGGCAAGGUGGCUGUGGCUAGACUGCC [A16G A26G] reads 0.37; that for GGCAGAGCUCAACACGGCGUGGCAAUGUGGCUGUGGCUAGACUGCC [A16G A26U], 0.52. The figure for GGCAGAGCUCAACACGGCGUGGCAUAGUGGCUGUGGCUAGACUGCC [A16G A25U] is 0.31; for GGCAGAGCUCAACACGGCGUGGCACAGUGGCUGUGGCUAGACUGCC [A16G A25C] it is 0.06.

With GGCAGAGCUCAACACGGCGUGGCAGAGUGGCUGUGGCUAGACUGCC [A16G A25G], the self-cleavage turned out to be 0.04.

For the variant GGCAGAGCUCAACACGGUGUGGCAAAGUGGCUGUGGCUAGACUGCC [A16G C18U], the self-cleavage came to 0.33. The figure for GGCAGAGCUCAACACGGGGUGGCAAAGUGGCUGUGGCUAGACUGCC [A16G C18G] is 0.04. The result for GGCAGAGCUCAACACGGAGUGGCAAAGUGGCUGUGGCUAGACUGCC [A16G C18A] reads 0.16. As to GGCAGAGCUCAACACGGCGUGGCAAAGUGGCUGUCGCUAGACUGCC [A16G G35C], the self-cleavage is 0.04. The result for GGCAGAGCUCAACACGGCGUGGCAAAGUGGCUGUUGCUAGACUGCC [A16G G35U] reads 0.11. The result for GGCAGAGCUCAACACGGCGUGGCAAAGUGGCUGUAGCUAGACUGCC [A16G G35A] reads 0.03; that for GGCAGAGCUCAACACCGCGCGGCAAAGUGGCUGUGGCUAGACUGCC [A16C U20C], 0.19.

Take GGCAGAGCUCAACACCGCGGGGCAAAGUGGCUGUGGCUAGACUGCC [A16C U20G]: the self-cleavage came out at 0.08.

In the case of GGCAGAGCUCAACACCGCGAGGCAAAGUGGCUGUGGCUAGACUGCC [A16C U20A], the self-cleavage amounted to 0.05.

As to GGCAGAGCUCAACACGGCGUGGCAAAGUGGCUGUGGCUAGACUGCG [A16G C46G], the self-cleavage worked out at 0.68. With GGCAGAGCUCAACACGGCGUGGCAAAGUGGCUGUGGCUAGACUGCA [A16G C46A], the self-cleavage was determined as 0.64.

GGCAGAGCUCAACACGGCGUGGCAAAGUGGCUGUGGCUAGACUGCU [A16G C46U]: the self-cleavage turned out to be 0.55.

For GGCAGAGCUCAACACGGCGUGGCAAAGUGGCUGUGGCUAGACAGCC [A16G U43A], the self-cleavage came to 0.02. The figure for GGCAGAGCUCAACACGGCGUGGCAAAGUGGCUGUGGCUAGACCGCC [A16G U43C] is 0.04. The figure for GGCAGAGCUCAACACGGCGUGGCAAAGUGGCUGUGGCUAGACGGCC [A16G U43G] is 0.08.

With GGCAGAGCUCAACACGGCGUGCCAAAGUGGCUGUGGCUAGACUGCC [A16G G22C], the self-cleavage was 0.1. The figure for GGCAGAGCUCAACACGGCGUGUCAAAGUGGCUGUGGCUAGACUGCC [A16G G22U] is 0.63; for GGCAGAGCUCAACACGGCGUGACAAAGUGGCUGUGGCUAGACUGCC [A16G G22A] it is 0.71. The result for GGCAGAGCUCAACACGGCGUGGCAAAGUGGCCGUGGCUAGACUGCC [A16G U32C] reads 0.26; that for GGCAGAGCUCAACACGGCGUGGCAAAGUGGCAGUGGCUAGACUGCC [A16G U32A], 0.07; that for GGCAGAGCUCAACACGGCGUGGCAAAGUGGCGGUGGCUAGACUGCC [A16G U32G], 0.11.
